These are literature values, as cited in paper PMC5326574.

For series [1], the target named is ERK2 (Homo sapiens) (UniProt P28482). As to the kind of experiment: NMR.
In series [2] the target is Prolactin (Homo sapiens) (UniProt P01236). As to the kind of experiment: SPR. A general note: Surface plasmon resonance follows binding to a sensor surface in real time, without labels.
Series [3] concerns the target Prolactin (second site) (Homo sapiens) (UniProt P01236).

Chain of UniProt P28482 (P28482 2-360): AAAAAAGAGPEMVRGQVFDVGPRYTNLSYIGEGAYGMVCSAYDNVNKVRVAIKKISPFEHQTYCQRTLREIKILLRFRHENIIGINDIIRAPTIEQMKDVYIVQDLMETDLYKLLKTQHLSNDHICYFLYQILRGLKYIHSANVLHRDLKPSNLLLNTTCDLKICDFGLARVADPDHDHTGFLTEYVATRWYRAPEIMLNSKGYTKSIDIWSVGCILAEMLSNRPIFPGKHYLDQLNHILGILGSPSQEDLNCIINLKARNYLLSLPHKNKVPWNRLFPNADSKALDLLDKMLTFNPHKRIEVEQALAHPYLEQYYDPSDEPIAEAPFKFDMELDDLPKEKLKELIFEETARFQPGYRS

In the case of “NHE1 C-terminal distal tail (NHE1cdt) (from UniProt P19634)”, the Kd in series [1] was 30 µM.

Consider “Prolactin receptor ECD (from UniProt P16471)”, for which the Kd is 0.006 µM in series [2] and 33 µM in series [3].

One may read the Kd as the equilibrium constant for the complex coming apart.
